Square brackets hold non-standard residues; d marks the D form. pT = C[C@@H](OP(=O)(O)O)[C@H](N)C(=O)O; pS = N[C@@H](COP(=O)(O)O)C(=O)O
T1: Pellino 1 FHA (PELI1 residues 13-273) (human, UniProt Q96FA3 13-273)
T1 construct: Cloned into pGEX-6P1; same preparation for ITC and crystallography by the methods; also called PELI1 (13–273); N-terminal PELI1 fragment; source: E. coli BL21 (DE3), purified (Glutathione Sepharose, 3C cleavage, gel filtration); not shown: GST, N-terminal, cleaved
T1 sequence (looked up): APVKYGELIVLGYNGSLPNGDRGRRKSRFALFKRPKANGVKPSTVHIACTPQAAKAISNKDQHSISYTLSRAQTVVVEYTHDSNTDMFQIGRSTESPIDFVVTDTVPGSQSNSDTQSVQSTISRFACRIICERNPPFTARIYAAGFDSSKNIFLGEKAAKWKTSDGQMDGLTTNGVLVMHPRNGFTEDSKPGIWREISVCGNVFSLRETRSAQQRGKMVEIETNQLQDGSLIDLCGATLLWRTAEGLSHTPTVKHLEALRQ

T2: Pellino 2 FHA (PELI2 residues 15-275) (human, UniProt Q9HAT8 15-275)
T2 construct: Cloned into pGEX-6P1; also called PELI2 (15–273); N-terminal PELI2 fragment; source: E. coli BL21 (DE3), purified (Glutathione Sepharose, 3C cleavage, gel filtration); not shown: GST, N-terminal, cleaved
T2 sequence (looked up): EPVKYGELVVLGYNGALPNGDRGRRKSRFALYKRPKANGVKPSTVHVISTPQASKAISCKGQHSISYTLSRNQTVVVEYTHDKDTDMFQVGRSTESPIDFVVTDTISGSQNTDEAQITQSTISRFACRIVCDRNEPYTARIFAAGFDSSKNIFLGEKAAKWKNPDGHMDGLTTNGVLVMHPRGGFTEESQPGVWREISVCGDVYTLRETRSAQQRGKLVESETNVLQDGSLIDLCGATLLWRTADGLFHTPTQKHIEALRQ

B1: H2AX-pS139 phosphopeptide for ITC (GGKATQApSQEY) (peptide)
chain: Ac-GGKATQA[pS]QEY-NH2
SMILES: CC(=O)NCC(=O)NCC(=O)N[C@@H](CCCCN)C(=O)N[C@@H](C)C(=O)N[C@H](C(=O)N[C@@H](CCC(N)=O)C(=O)N[C@@H](C)C(=O)N[C@@H](COP(=O)(O)O)C(=O)N[C@@H](CCC(N)=O)C(=O)N[C@@H](CCC(=O)O)C(=O)N[C@@H](Cc1ccc(O)cc1)C(N)=O)[C@@H](C)O
B2: IRAK1-pT141(+3Y) phosphopeptide (AYSSASpTFLYP) (peptide)
peptide: Ac-AYSSAS[pT]FLYP-NH2
SMILES: CC(=O)N[C@@H](C)C(=O)N[C@@H](Cc1ccc(O)cc1)C(=O)N[C@@H](CO)C(=O)N[C@@H](CO)C(=O)N[C@@H](C)C(=O)N[C@@H](CO)C(=O)N[C@H](C(=O)N[C@@H](Cc1ccccc1)C(=O)N[C@@H](CC(C)C)C(=O)N[C@@H](Cc1ccc(O)cc1)C(=O)N1CCC[C@H]1C(N)=O)[C@@H](C)OP(=O)(O)O
notes: two N-terminal residues as in the other ITC peptides; IRAK1, stretch around T141 with tyrosine at pT+3; also called IRAK-pT141(+3Y); source: synthetic peptide
B3: MDC1-pT765 phosphopeptide for ITC and crystallisation (AYEDSEpTQPFD) (peptide)
peptide: Ac-AYEDSE[pT]QPFD-NH2
SMILES: CC(=O)N[C@@H](C)C(=O)N[C@@H](Cc1ccc(O)cc1)C(=O)N[C@@H](CCC(=O)O)C(=O)N[C@@H](CC(=O)O)C(=O)N[C@@H](CO)C(=O)N[C@@H](CCC(=O)O)C(=O)N[C@H](C(=O)N[C@@H](CCC(N)=O)C(=O)N1CCC[C@H]1C(=O)N[C@@H](Cc1ccccc1)C(=O)N[C@@H](CC(=O)O)C(N)=O)[C@@H](C)OP(=O)(O)O
notes: two N-terminal residues that are not the MDC1 residues at this place; human MDC1, stretch around T765; Natural stretch with two added N-terminal residues (AY); The crystallisation methods name only 'the MDC1-pT765 phosphopeptide'; also called MDC1-pT765 (Site 4) phosphopeptide; MDC1 p765 peptide; source: synthetic peptide
B4: MDC1-pT752 phosphopeptide for ITC (AYEVLApTQPFC) (peptide)
peptide: Ac-AYEVLA[pT]QPFC-NH2
SMILES: CC(=O)N[C@@H](C)C(=O)N[C@@H](Cc1ccc(O)cc1)C(=O)N[C@@H](CCC(=O)O)C(=O)N[C@H](C(=O)N[C@@H](CC(C)C)C(=O)N[C@@H](C)C(=O)N[C@H](C(=O)N[C@@H](CCC(N)=O)C(=O)N1CCC[C@H]1C(=O)N[C@@H](Cc1ccccc1)C(=O)N[C@@H](CS)C(N)=O)[C@@H](C)OP(=O)(O)O)C(C)C
notes: two N-terminal residues that are not the MDC1 residues at this place; human MDC1, stretch around T752; Natural stretch with two added N-terminal residues (AY); source: synthetic peptide
B5: MDC1-pT699 phosphopeptide for ITC (AYDLQApTQCFA) (peptide)
peptide: Ac-AYDLQA[pT]QCFA-NH2
SMILES: CC(=O)N[C@@H](C)C(=O)N[C@@H](Cc1ccc(O)cc1)C(=O)N[C@@H](CC(=O)O)C(=O)N[C@@H](CC(C)C)C(=O)N[C@@H](CCC(N)=O)C(=O)N[C@@H](C)C(=O)N[C@H](C(=O)N[C@@H](CCC(N)=O)C(=O)N[C@@H](CS)C(=O)N[C@@H](Cc1ccccc1)C(=O)N[C@@H](C)C(N)=O)[C@@H](C)OP(=O)(O)O
notes: human MDC1, stretch around T699 with alanine at pT+4; source: synthetic peptide
B6: MDC1-pT719 phosphopeptide for ITC (AYEDEPpTQAFA) (peptide)
chain: Ac-AYEDEP[pT]QAFA-NH2
SMILES: CC(=O)N[C@@H](C)C(=O)N[C@@H](Cc1ccc(O)cc1)C(=O)N[C@@H](CCC(=O)O)C(=O)N[C@@H](CC(=O)O)C(=O)N[C@@H](CCC(=O)O)C(=O)N1CCC[C@H]1C(=O)N[C@H](C(=O)N[C@@H](CCC(N)=O)C(=O)N[C@@H](C)C(=O)N[C@@H](Cc1ccccc1)C(=O)N[C@@H](C)C(N)=O)[C@@H](C)OP(=O)(O)O

biological target: T3, MDC1 BRCT-repeat fragment (human); assay: ITC; peptide in the syringe (typically 160 μM), protein in the cell (16 μM); 25 mM HEPES pH 7.0, 200 mM NaCl, 1 mM TCEP; single-site binding model; conditions: both partners purified
T3 construct: MDC1, BRCT-repeat fragment; source: purified

Kd [nM]	dH [kcal/mol]	stoichiometry N	Binder
850	-13.9	0.6	B1

biological target: T1, Pellino 1 FHA (PELI1 residues 13-273); assay: as above; conditions: both partners purified

Kd [nM]	dH [kcal/mol]	stoichiometry N	Binder
420	-17.4	0.7	B2
230	-22	0.62	B3
1140	-18.5	0.74	B4
2010	-18.5	0.36	B5
1140	-21.8	0.78	B6

biological target: T2, Pellino 2 FHA (PELI2 residues 15-275); assay: as above; conditions: both partners purified

Kd [nM]	dH [kcal/mol]	stoichiometry N	Binder
700	-25.8	0.59	B2
370	-32.7	0.69	B3
1060	-28.2	0.69	B4
1120	-19.9	0.55	B5
1220	-34.7	0.52	B6
